The source of these data is PMC8843743, “Targeting a proteolytic neoepitope on CUB domain containing protein 1 (CDCP1) for RAS-driven cancers” (The Journal of Clinical Investigation, 2022).

In this test the target is T1, NTF of recombinant c-CDCP1 cut 3 (human, UniProt Q9H5V8 30-369).
T1 construct: CUB domain containing protein 1 (CDCP1), human; NTF with the native cut site 3 (proteolysis after K369); NTF (aa 30-369); The NTF alone was also made as NTF-Fc; also called NTF (cut 3); NTF (aa 30-369); source: BirA-Expi293, cotransfected with the CTF plasmid, purified (protein A or Ni-NTA)
T1 sequence (looked up): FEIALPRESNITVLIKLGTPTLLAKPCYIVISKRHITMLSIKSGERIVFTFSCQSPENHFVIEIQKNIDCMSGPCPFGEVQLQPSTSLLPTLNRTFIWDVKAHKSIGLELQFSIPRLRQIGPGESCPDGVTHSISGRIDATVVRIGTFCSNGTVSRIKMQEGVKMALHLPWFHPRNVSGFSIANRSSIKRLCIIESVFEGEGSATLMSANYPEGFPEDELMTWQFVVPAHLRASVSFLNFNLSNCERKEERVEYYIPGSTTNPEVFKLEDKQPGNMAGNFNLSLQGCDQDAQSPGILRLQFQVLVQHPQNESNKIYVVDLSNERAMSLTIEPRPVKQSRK
Put plainly: co-purification after co-expression; NTF and CTF ectodomain on separate plasmids cotransfected in BirA-Expi293; protein A or Ni-NTA affinity chromatography; SDS-PAGE. Conditions: partners not purified.

B1: CTF ectodomain of recombinant c-CDCP1 cut 3 (domain or fragment, human, UniProt Q9H5V8 370-665, looked up)
chain: FVPGCFVCLESRTCSSNLTLTSGSKHKISFLCDDLTRLWMNVEKTISCTDHRYCQRKSYSLQVPSDILHLPVELHDFSWKLLVPKDRLSLVLVPAQKLQQHTHEKPCNTSFSYLVASAIPSQDLYFGSFCPGGSIKQIQVKQNISVTLRTFAPSFQQEASRQGLTVSFIPYFKEEGVFTVTPDTKSKVYLRTPNWDRGLPSLTSVSWNISVPRDQVACLTFFKERSGVVCQTGRAFMIIQEQRTRAEEIFSLDEDVLPKPSFHHHSFWVNISNCSPTSGKQLDLLFSVTLTPRTVD
notes: CUB domain containing protein 1 (CDCP1), human; CTF ectodomain with the native cut site 3 (proteolysis after K369); CTF (aa 370-665); also called CTF (cut 3); CTF (aa 370-665); source: BirA-Expi293, cotransfected with the NTF plasmid, purified (protein A or Ni-NTA)
Consider B1, for which the binding result is recorded as “binds”.
